In US20240025993A1 (Novartis, published 2024):
Numbering of substitutions follows the chain as printed. In names and notes the source's numbering stands.

B1: Anti-CD3 human IgG1 antibody, wild type Fc (antibody)
heavy: not shown
light: QAVVTQEPSLTVSPGGTVTLTCRSSTGAVTTSNYANWVQQKPGQAPRGLIGGTNKRAPWTPARFSGSLLGDKAALTLSGAQPEDEAEYFCALWYSNLWVFGGGTKLTVLGQPKAAPSVTLFPPSSEELQANKATLVCLISDFYPGAVTVAWKADSSPVKAGVETTTPSKQSNNKYAASSYLSLTPEQWKSHRSYSCQVTHEGSTVEKTVAPTECS
notes: also called WT; WT IgG1
B2: Anti-CD3 human IgG1 antibody, LALAPG Fc variant (L234A/L235A/P329G) (antibody)
heavy: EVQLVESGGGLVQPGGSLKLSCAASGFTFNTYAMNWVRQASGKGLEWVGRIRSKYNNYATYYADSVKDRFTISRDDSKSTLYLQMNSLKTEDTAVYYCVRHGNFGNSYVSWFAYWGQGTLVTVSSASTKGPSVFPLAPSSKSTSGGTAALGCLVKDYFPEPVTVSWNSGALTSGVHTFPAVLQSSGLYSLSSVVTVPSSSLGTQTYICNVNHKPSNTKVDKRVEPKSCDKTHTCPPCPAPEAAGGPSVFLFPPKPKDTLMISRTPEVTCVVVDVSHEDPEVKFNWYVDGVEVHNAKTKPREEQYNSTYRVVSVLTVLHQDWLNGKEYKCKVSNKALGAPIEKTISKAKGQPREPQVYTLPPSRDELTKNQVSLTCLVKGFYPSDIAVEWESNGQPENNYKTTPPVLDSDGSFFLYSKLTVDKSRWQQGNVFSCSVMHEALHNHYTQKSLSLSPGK
light: B1 light
notes: also called LALAPG-IgG1; FCV-3
B3: Anti-CD3 human IgG1 antibody, GADAPA Fc variant (G237A/D265A/P329A) (antibody)
heavy: EVQLVESGGGLVQPGGSLKLSCAASGFTFNTYAMNWVRQASGKGLEWVGRIRSKYNNYATYYADSVKDRFTISRDDSKSTLYLQMNSLKTEDTAVYYCVRHGNFGNSYVSWFAYWGQGTLVTVSSASTKGPSVFPLAPSSKSTSGGTAALGCLVKDYFPEPVTVSWNSGALTSGVHTFPAVLQSSGLYSLSSVVTVPSSSLGTQTYICNVNHKPSNTKVDKRVEPKSCDKTHTCPPCPAPELLGAPSVFLFPPKPKDTLMISRTPEVTCVVVAVSHEDPEVKFNWYVDGVEVHNAKTKPREEQYNSTYRVVSVLTVLHQDWLNGKEYKCKVSNKALAAPIEKTISKAKGQPREPQVYTLPPSRDELTKNQVSLTCLVKGFYPSDIAVEWESNGQPENNYKTTPPVLDSDGSFFLYSKLTVDKSRWQQGNVFSCSVMHEALHNHYTQKSLSLSPGK
light: B1 light
notes: also called GADAPA-IgG1; FCV-6
B4: Anti-CD3 human IgG1 antibody, DANAPA Fc variant (D265A/N297A/P329A) (antibody)
heavy: B3 heavy with A245G, N305A
light: B1 light
notes: Variant made by PCR mutagenesis of the anti-CD3 WT IgG1 heavy chain; also called DANAPA-IgG1; FCV-9
B5: Anti-CD3 human IgG1 antibody, DAPASK Fc variant (D265A/P329A/S267K) (antibody)
heavy: B3 heavy with A245G, S275K
light: B1 light
notes: also called DAPASK-IgG1; FCV-5
B6: Anti-CD3 human IgG1 antibody, LALAGA Fc variant (L234A/L235A/G237A) (antibody)
heavy: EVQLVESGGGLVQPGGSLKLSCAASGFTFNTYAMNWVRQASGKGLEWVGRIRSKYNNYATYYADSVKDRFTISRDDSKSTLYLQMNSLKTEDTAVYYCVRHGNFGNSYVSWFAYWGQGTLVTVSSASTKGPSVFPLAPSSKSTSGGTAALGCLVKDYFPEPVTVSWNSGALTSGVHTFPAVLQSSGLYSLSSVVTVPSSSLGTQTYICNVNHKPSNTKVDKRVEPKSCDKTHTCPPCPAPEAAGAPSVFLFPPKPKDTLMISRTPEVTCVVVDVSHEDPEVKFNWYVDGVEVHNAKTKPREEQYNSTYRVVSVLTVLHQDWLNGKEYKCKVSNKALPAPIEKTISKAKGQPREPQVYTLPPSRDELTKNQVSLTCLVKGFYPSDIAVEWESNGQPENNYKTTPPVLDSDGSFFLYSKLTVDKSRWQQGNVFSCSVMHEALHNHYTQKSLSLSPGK
light: B1 light
notes: also called LALAGA-IgG1; FCV-2
B7: Anti-CD3 human IgG1 antibody, LALASKPA Fc variant (L234A/L235A/S267K/P329A) (antibody)
heavy: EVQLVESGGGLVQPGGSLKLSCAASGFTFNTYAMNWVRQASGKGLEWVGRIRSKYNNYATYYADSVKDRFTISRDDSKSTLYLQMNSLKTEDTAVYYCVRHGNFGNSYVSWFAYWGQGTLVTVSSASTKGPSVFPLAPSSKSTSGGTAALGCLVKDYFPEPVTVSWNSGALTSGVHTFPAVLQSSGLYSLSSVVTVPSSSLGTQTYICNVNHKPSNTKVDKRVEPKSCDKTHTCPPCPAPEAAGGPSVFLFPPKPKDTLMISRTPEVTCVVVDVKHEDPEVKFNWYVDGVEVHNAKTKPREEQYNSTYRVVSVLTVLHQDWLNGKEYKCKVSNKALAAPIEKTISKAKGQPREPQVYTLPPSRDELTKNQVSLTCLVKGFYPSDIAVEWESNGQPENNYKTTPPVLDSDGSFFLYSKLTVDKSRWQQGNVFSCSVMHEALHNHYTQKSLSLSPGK
light: B1 light
notes: also called FCV-4
B8: Anti-CD3 human IgG1 antibody, GADAPASK Fc variant (G237A/D265A/P329A/S267K) (antibody)
heavy: B3 heavy with S275K
light: B1 light
notes: also called FCV-7
B9: Anti-CD3 human IgG1 antibody, R214K allotype (antibody)
heavy: not shown
light: B1 light
notes: also called WT allotype; WT allotype R214K
B10: Anti-CD3 human IgG1 antibody, LALAPA Fc variant (L234A/L235A/P329A) (antibody)
heavy: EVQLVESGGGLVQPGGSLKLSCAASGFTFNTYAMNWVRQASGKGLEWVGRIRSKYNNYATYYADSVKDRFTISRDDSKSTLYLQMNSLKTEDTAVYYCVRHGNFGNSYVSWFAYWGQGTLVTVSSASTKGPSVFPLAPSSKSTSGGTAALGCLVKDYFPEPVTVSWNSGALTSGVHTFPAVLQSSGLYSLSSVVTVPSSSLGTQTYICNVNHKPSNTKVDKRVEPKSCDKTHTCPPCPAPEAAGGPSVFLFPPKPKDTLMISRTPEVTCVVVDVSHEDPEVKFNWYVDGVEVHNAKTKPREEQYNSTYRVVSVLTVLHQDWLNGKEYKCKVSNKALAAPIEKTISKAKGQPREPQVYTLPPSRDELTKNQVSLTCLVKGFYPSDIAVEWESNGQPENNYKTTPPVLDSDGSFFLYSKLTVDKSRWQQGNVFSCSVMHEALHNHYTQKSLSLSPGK
light: B1 light
notes: also called LALAPA-IgG1; FCV-1
B11: Anti-CD3 human IgG1 antibody, DAPA Fc variant (D265A/P329A) (antibody)
heavy: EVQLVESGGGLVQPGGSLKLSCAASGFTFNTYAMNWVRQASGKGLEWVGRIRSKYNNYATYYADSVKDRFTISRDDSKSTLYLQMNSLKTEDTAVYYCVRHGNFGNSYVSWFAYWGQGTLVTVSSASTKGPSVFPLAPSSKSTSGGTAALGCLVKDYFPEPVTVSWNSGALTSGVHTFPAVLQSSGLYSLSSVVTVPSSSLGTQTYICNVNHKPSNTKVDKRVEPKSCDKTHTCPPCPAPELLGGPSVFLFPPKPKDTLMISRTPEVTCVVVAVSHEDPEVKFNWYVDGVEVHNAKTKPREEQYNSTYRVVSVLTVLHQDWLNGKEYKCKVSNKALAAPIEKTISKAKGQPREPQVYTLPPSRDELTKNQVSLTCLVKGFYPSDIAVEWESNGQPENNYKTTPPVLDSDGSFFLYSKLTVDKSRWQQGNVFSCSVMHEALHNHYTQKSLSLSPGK
light: B1 light
notes: also called DAPA-IgG1; FCV-8
B12: Anti-CD19-CD3 / CD58 trispecific antibody, DANAPA IgG1 Fc (Table 33) (other)
heavy: QVQLVQSGAEVKKPGASVKVSCKASGYTFTTYWIQWVRQAPGQRLEWMGAVYPGDADTRYTQKFQGRVTLTADRSASTAYMELSSLRSEDTAVYYCGRDAGLEYYALDYWGQGTLVTVSSASTKGPSVFPLAPSSKSTSGGTAALGCLVKDYFPEPVTVSWNSGALTSGVHTFPAVLQSSGLYSLSSVVTVPSSSLGTQTYICNVNHKPSNTKVDKRVEPKSCGGGGSGGGGSEVQLVESGGGLVQPGGSLKLSCAASGFTFNTYAMNWVRQASGKGLEWVGRIRSKYNNYATYYADSVKDRFTISRDDSKSTLYLQMNSLKTEDTAVYYCVRHGNFGNSYVSWFAYWGQGTLVTVSSGGGGSGGGGSGGGGSGGGGSQAVVTQEPSLTVSPGGTVTLTCRSSTGAVTTSNYANWVQQKPGQAPRGLIGGTNKRAPWTPARFSGSLLGDKAALTLSGAQPEDEAEYFCALWYSNLWVFGGGTKLTVLGGGGSDKTHTCPPCPAPELLGGPSVFLFPPKPKDTLMISRTPEVTCVVVAVSHEDPEVKFNWYVDGVEVHNAKTKPREEQYASTYRVVSVLTVLHQDWLNGKEYKCKVSNKALAAPIEKTISKAKGQPREPQVCTLPPSREEMTKNQVSLSCAVKGFYPSDIAVEWESNGQPENNYKTTPPVLDSDGSFFLVSKLTVDKSRWQQGNVFSCSVMHEALHNHYTQKSLSLSPGK
chain: SQQIYGVVYGNVTFHVPSNVPLKEVLWKKQKDKVAELENSEFRAFSSFKNRVYLDTVSGSLTIYNLTSSDEDEYEMESPNITDTMKFFLYVLESGGGGSDKTHTCPPCPAPELLGGPSVFLFPPKPKDTLMISRTPEVTCVVVAVSHEDPEVKFNWYVDGVEVHNAKTKPREEQYASTYRVVSVLTVLHQDWLNGKEYKCKVSNKALAAPIEKTISKAKGQPREPQVYTLPPCREEMTKNQVSLWCLVKGFYPSDIAVEWESNGQPENNYKTTPPVLDSDGSFFLYSKLTVDKSRWQQGNVFSCSVMHEALHNHYTQKSLSLSPGK
light: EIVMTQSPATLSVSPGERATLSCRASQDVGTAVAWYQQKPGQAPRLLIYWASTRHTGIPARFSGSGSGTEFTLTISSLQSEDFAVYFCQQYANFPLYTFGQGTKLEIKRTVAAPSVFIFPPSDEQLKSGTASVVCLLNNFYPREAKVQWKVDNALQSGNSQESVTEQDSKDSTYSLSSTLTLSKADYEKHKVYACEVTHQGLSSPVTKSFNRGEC
B13: Anti-CD19-CD3 / CD58 trispecific antibody, GADAPASK IgG1 Fc (Table 33) (other)
heavy: B12 heavy with G509A, S539K, A569N
chain: B12 chain with G116A, S146K, A176N
light: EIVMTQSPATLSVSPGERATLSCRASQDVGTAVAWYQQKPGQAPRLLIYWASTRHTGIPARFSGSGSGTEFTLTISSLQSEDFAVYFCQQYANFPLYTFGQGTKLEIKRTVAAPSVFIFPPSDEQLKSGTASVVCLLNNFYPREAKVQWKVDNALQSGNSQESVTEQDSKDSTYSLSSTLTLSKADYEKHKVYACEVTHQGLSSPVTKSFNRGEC
B14: Anti-CD19-CD3 / CD58 trispecific antibody, LALASKPA IgG1 Fc (Table 33) (other)
heavy: B12 heavy with L506A, L507A, A537D, S539K, A569N
chain: B12 chain with L113A, L114A, A144D, S146K, A176N
light: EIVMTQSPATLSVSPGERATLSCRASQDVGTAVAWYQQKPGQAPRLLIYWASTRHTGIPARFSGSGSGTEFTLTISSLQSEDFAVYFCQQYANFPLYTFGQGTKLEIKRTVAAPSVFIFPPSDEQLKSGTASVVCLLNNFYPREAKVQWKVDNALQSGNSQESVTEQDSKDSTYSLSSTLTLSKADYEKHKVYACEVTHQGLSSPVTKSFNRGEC

These binders were tested against T1, human C1q (human, UniProt P02745 23-245; P02746 28-253; P02747 29-245) (assay: SPR (Biacore T200), antibody amine-coupled on CM5 chip, C1q as analyte).
T1 construct: also called hC1q
T1 sequence (P02745 23-245 limits assumed, chain 1 of 3): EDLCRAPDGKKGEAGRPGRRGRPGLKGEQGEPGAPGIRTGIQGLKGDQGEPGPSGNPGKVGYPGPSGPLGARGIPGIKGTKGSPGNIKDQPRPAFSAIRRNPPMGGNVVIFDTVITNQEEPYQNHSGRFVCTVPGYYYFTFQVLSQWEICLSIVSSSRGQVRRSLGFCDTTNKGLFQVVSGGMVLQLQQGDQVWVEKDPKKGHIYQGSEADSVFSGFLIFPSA
T1 sequence (P02746 28-253 limits assumed, chain 2 of 3): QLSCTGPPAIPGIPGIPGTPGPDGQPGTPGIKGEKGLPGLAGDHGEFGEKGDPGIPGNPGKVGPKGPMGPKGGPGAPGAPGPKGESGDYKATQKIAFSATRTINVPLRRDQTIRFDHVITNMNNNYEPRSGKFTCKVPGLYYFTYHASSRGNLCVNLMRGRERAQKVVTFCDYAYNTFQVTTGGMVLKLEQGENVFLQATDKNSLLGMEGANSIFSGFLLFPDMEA
T1 sequence (P02747 29-245 limits assumed, chain 3 of 3): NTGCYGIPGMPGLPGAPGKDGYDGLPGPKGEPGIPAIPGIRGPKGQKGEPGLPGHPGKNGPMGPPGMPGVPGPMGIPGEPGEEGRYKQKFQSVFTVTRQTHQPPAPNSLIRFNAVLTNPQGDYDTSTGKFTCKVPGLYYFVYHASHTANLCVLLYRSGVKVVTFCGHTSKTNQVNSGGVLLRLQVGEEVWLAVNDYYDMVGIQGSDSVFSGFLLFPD
Procedure: (§1) Binding to human C1q was evaluated. All SPR buffers were prepared using deionized water. The samples were prepared in running buffer PBS pH 7.4 with 0.005% Tween-20. SPR measurements were measured on a Biacore T200 (GE-Healthcare Life Sciences) controlled by Biacore T200 control software version 2.0.1. Surface plasmon resonance was conducted using a Biacore T200 to assess binding affinity of antibody IgG1 WT and variants to human Fc receptors, including FcγR1A, and FcγR3A (V158) and human C1q.
(§2) The antibodies were covalently immobilized on a CM5 sensor chip whereas Fc gamma receptors or human C1q served as analytes in solution (FIG. 38). For Fc gamma receptors binding evaluation (method 1), antibodies were diluted in 10 mM sodium acetate pH 4 and immobilized at a density of approximately 950 resonance units (RU's) on the CM5 sensor chip applying a standard amine coupling procedure. Flow cell 1 was blank immobilized to serve as a reference. The kinetic binding data were collected by subsequent injections of 1:2 dilution series of the human Fc gamma receptors on all flow cells at a flow rate of 30 μl/min and at a temperature of 25° C. The Fc gamma receptors were diluted in the running buffer at concentrations ranging from 0.2 nM to 1000 nM (e.g. FcγR1A: 0.2 to 100 nM, FcγR3A V158: 1.95 to 1000 nM). The chip surface was regenerated using 20 mM glycine pH 2.0 solution after each measuring cycle. For human C1q binding evaluation (method 2), antibodies were diluted in 10 mM sodium acetate pH 4 and immobilized at a density of approximately 7000 resonance units (RU's) on the CM5 sensor chip applying a standard amine coupling procedure. Flow cell 1 was blank immobilized to serve as a reference. The kinetic binding data were collected by subsequent injections of 1:2 dilution series of the human C1q on all flow cells at a flow rate of 30 μl/min and at a temperature of 25° C. The human C1q was diluted in the running buffer at concentrations ranging from 0.49 nM to 250 nM. The chip surface was regenerated using 50 mM NaOH solution after each measuring cycle. Zero concentration samples (blank runs) were measured for both methods to allow double-referencing during data evaluation.
(§3) Data were evaluated using the Biacore T200 evaluation software.

First: B1
Second: B2
The “Maximum response at 250 nM hC1q (RU)” value of the first is higher: 680 RU for the first, 245 RU for the second.

Going from B3 to B4, the “Maximum response at 250 nM hC1q (RU)” value falls from 203 RU to 29 RU.

Going from B5 to B6, the “Maximum response at 250 nM hC1q (RU)” value rises from 86 RU to 335 RU.

First: B7
Second: B8
The “Maximum response at 250 nM hC1q (RU)” value of the first is lower: 95 RU for the first, 168 RU for the second.

First: B9
Second: B10
The “Maximum response at 250 nM hC1q (RU)” value of the first is higher: 640 RU for the first, 270 RU for the second.

With B11 the “Maximum response at 250 nM hC1q (RU)” value was 85 RU.

The binders below were run against T2, human Fc gamma receptor 1A (human, UniProt P12314 16-288, limits assumed) (assay: SPR (Biacore T200), antibody amine-coupled on CM5 chip, receptor as analyte).
T2 construct: also called hFcgammaRIA; hFcγRIA
T2 sequence (P12314 16-288 limits assumed): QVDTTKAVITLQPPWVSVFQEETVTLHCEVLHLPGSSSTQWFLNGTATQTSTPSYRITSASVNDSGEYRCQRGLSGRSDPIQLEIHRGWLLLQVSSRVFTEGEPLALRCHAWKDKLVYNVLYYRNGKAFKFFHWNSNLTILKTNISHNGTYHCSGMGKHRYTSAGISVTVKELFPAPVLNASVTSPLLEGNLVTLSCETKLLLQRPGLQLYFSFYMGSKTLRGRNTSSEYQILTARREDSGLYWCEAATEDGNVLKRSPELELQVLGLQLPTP
Procedure: as §1, §2, §3

B1 and B9 are the same in “Maximum response at 100 nM hFcgammaRIA (RU)” value: 193 RU for the first, 193 RU for the second.

Going from B10 to B11, the “Maximum response at 100 nM hFcgammaRIA (RU)” value rises from 26 RU to 63 RU.

What follows are binders tested against T3, human Fc gamma receptor 3A, V158 variant (human, UniProt P08637 17-208) in the same assay as above.
T3 construct: also called hFcgammaRIIIA V158; FcγR3A (V158)
T3 sequence (P08637 other isoform, or with tags, fused parts or gaps mutant): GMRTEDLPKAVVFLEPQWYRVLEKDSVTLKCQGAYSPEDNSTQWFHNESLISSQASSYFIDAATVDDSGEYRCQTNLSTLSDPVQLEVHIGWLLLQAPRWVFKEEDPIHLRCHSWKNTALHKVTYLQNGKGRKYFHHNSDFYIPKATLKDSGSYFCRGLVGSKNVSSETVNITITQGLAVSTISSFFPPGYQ
Procedure: as §1, §2, §3

Going from B1 to B2, the “Maximum response at 1000 nM hFcgammaRIIIA V158 (RU)” value falls from 79 RU to 33 RU.

Compared with B3, B4 is higher in “Maximum response at 1000 nM hFcgammaRIIIA V158 (RU)” value: 9 RU for the first, 31 RU for the second.

Going from B5 to B6, the “Maximum response at 1000 nM hFcgammaRIIIA V158 (RU)” value rises from 15 RU to 25 RU.

First: B7
Second: B8
The “Maximum response at 1000 nM hFcgammaRIIIA V158 (RU)” value of the first is higher: 20 RU for the first, 12 RU for the second.

Compared with B9, B10 is lower in “Maximum response at 1000 nM hFcgammaRIIIA V158 (RU)” value: 72 RU for the first, 19 RU for the second.

With B11 the “Maximum response at 1000 nM hFcgammaRIIIA V158 (RU)” value was 15 RU.

The binders below were run against T2, human Fc gamma receptor 1A (assay: SPR (Biacore T200), antibody amine-coupled on CM5 chip, human FcγRIA as analyte; maximum response (RU)).
Procedure: Surface plasmon resonance was conducted using a Biacore T200 to assess binding affinity of antibody WT and variants to human FcγR1A.
The antibodies were covalently immobilized on a CM5 sensor chip whereas Fc gamma receptor 1A served as analyte in solution (FIG. 38). Antibodies were diluted in 10 mM sodium acetate pH 4 and immobilized at a density of approximately 950 resonance units (RU) on the CM5 sensor chip applying a standard amine coupling procedure. Flow cell 1 was blank immobilized to serve as a reference. The kinetic binding data were collected by subsequent injections of 1:2 dilution series of the human Fc gamma receptor 1A on all flow cells at a flow rate of 30 μl/min and at a temperature of 25° C. […] The chip surface was regenerated using 20 mM glycine pH 2.0 solution after each measuring cycle. Zero concentration samples (blank runs) were measured to allow double-referencing during data evaluation.
Data were evaluated using the Biacore T200 evaluation software. The raw data were double referenced, i.e. the response of the measuring flow cell was corrected for the response of the reference flow cell, and in a second step the response of a blank injection was subtracted. Then the sensorgrams were fitted by applying a 1:1 kinetic binding model to calculate dissociation equilibrium constants. In addition, the maximum response reached during the experiment was monitored. Maximum response describes the binding capacity of the surface in terms of the response at saturation.

B12: no binding (tested: 25 nM).
B13: no binding (tested: 25 nM).
B14: no binding (tested: 25 nM).
